Experimental data taken from article PMC8420576 (2021).

B1: VHH antibody Re9F06 (VHH)
VHH: QVQLVESGGGLVQAGGSLRLSCAASGRTFSNDALGWFRQAPRKEREFVAAINWNSGTYYADSVKGRFTISRDNAKNTVYLQMNSLKPEDTAVYSCAAASDYGLPREDFLYDYWGQGTQVTVSS
B2: VHH antibody Re5D06, labeled with two PEG11-biotins (VHH)
VHH: QVQLVESGGGLVQPGGSLRLSCAASGITLDYYAIGWFRQAPGKEREGVSRIRSSDGSTNYADSVKGRFTMSRDNAKNTVYLQMNSLKPEDTAVYYCAYGPLTKYGSSWYWPYEYDYWGQGTQVTVSS

What was measured:
Test in all cases: BLI
[1] = target: T1, SARS-CoV-2 Spike RBD (residues 334–527), C-terminal Avi-His6 tag, biotinylated (SARS-CoV-2, UniProt P0DTC2 334-527, biotin on the Avi-tag)
[2] = target: T1, SARS-CoV-2 Spike RBD (residues …); remark: listed apart in the source
[3] = target: T2, SARS-CoV-2 RBD wt (GenScript Z03479) (SARS-CoV-2, UniProt P0DTC2 319-541)
[4] = target: T2, SARS-CoV-2 RBD wt (GenScript Z03479); remark: listed apart in the source

Row | Binder | koff [1] | Kd [2] | koff [3] | Kd [4]
1 | B1 | 0.00045 s⁻¹ | 270 nM |  | 
2 | B2 |  |  | 1.6e-06 s⁻¹ | < 0.01 nM
